Experimental findings from the supplement of paper PMC9170038 are described below.

The test system of the data set is MS2 coat protein. The data set can be described thus: apparent KD of MS2 coat protein; designed switch direction (-1 OFF switch, 1 ON switch): -1; higher = weaker reporter binding. A digest of the protocol:
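Designed RNA switches were transcribed on Illumina chips by stalled E. coli RNA polymerase and titrated with SNAP-549-labelled MS2 coat protein from 0.7 or 1.5 nM, doubling to 3 µM. Step length ran from 0.8–1.5 h at the lowest concentration to 10–20 min at the highest. The apparent KD is the median over clusters for each design, from curve-fitted normalised cluster fluorescence.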

The mark [1] stands for this setting: Eterna round: R95, input ligand: microRNA oligo, concentration not stated.
The mark [2] stands for this setting: Eterna round: R95, input ligand: FMN 200 uM.
Where [3] appears, read: Eterna round: R95, input ligand: none.

For “CCCAGUUAGGAAGGAUAUUGUACAUGAGGAUCACCCAUGUAAUAAAUGAGGAUUUCGGGUGUCUACAAGAAGGUCCGGAUAGGC [Ostracism 13 - Jieux - Exclusion NG 2] (Eterna round: R96, puzzle: Exclusion NG 2)”, the “apparent KD of MS2 coat protein” value is, setting by setting: (input ligand: FMN 200 uM) 0.11 µM; (input ligand: microRNA oligo, concentration not stated) 0.0392 µM; (input ligand: none) 0.0594 µM.
On to “AAACCUAUAGGAUAUACAUGAGGAUCACCCAUGUUGCGAUUUUUUAGGUAACAGAUCCGUAGAAGGGUAGGUUA [Anzaoror] (puzzle: Exclusion 3)”, for which the “apparent KD of MS2 coat protein” value under setting [1] was determined as 0.0244 µM.
For “GAAAAGGUAGGAUAUACGAUAAGAAAGGGUAGAGAAGAAACACAUGAGGAUCACCCAUGUAGAAGGACCAAAAG [salish99_ex2_r3_100] (puzzle: Exclusion 2)”, the “apparent KD of MS2 coat protein” value stood at 0.146 µM under setting [2], 0.0236 µM under setting [1] and 0.0332 µM under setting [3].
Turning to “ACGCGUGGCUAGGAUAUGCAGCAAUCUAGCCAGGCAGAAGGAGCCACAUGAGGAUCACCCAUGUGGUGAUCCUC [eternacac ex6r4 sub2] (Eterna round: R97, puzzle: Exclusion 6)”, the “apparent KD of MS2 coat protein” value turned out to be 0.00821 µM (input ligand: FMN 200 uM) and 0.0112 µM (input ligand: none).
As to “AUAGGCUUUUAUAUCCUUAACAUGAGGAUCACCCAUGUUCGUCUUAUGAUGGUCUGAUCCCUGAGGAUCGGACCGUU [JL-sv1-2.05 Brourd Mod] (puzzle: Sensor v3, turn-off variant 1)”, the “apparent KD of MS2 coat protein” value by setting is: under setting [2], 0.0323 µM; under setting [1], 0.134 µM; under setting [3], 0.0354 µM.
Take “GAAGAGGUAGGAUAUACGAAAAAAAAGGGUAGAAAAAAAACACAUGAGGAUCACCCAUGUAGAAGGACCAAAAG [salish99_ex2_r3_034] (puzzle: Exclusion 2)”: the “apparent KD of MS2 coat protein” value under setting [2] turned out to be 0.102 µM, the “apparent KD of MS2 coat protein” value under setting [1] is 0.036 µM and the “apparent KD of MS2 coat protein” value under setting [3] was found to be 0.0231 µM.
Take “GCGAGAUGAGGAUAUUAGUGGAAUGACAUGAGGAUCACCCAUGUUACGCAUGUCGAGCUUUGAGAAGGCAUUACGA [Eternabot (L2) Solution 75] (Eterna round: R97, puzzle: Exclusion 5)”: the “apparent KD of MS2 coat protein” value was 0.0262 µM (input ligand: FMN 200 uM) and 0.0313 µM (input ligand: none).
“AUUAUGUGAGGAUAUUAGUAGUAAAUGAAUAAAAUUAUUACUGAGAAGGCACAUGAGGAUCACCCAUGUUCCUU [Mat - Exclusion 4 - Eli Mod - D6] (Eterna round: R97, puzzle: Exclusion 4)”: the “apparent KD of MS2 coat protein” value (input ligand: FMN 200 uM) stood at 0.155 µM and the “apparent KD of MS2 coat protein” value (input ligand: none) is 0.0181 µM.
With “ACGCGCAUAGGAUAUGCCGACGGAGAACUCCAGUGACUUCAACAUGAGGAUCACCCAUGUAGAAGGAUGAUGCA [Eternabot (Original) Solution 32] (Eterna round: R97, puzzle: Exclusion 2)”, the “apparent KD of MS2 coat protein” value is 0.0168 µM (input ligand: FMN 200 uM) and 0.0148 µM (input ligand: none).
On to “UUGCCGCGAGGAUAUGCAGACGGGUUCAAUACGUGUCUCGGACUUGAGGAUCACCCAAGUAGAAGGCUUUUUAU [LRO-Excl2-13-mod _r4_621 by salish99] (Eterna round: R97, puzzle: Exclusion 2)”, for which the “apparent KD of MS2 coat protein” value runs as follows: (input ligand: FMN 200 uM) 0.0162 µM; (input ligand: none) 0.0148 µM.
As to “GAGAAAGCAAACAGGUGAAACAUGAGGAUCACCCAUGUCCUCAUUUGCUCGUCUUAUAAGCUAUGCGAAAGCAUAGC [Mat - Sensor v3 - turn-off var 1 - Eli Mod - D54] (puzzle: Sensor v3, turn-off variant 1)”, the “apparent KD of MS2 coat protein” value amounted to 0.0635 µM under setting [2], 0.642 µM under setting [1] and 0.0587 µM under setting [3].
For “UGUACUAACACGAUAGUGUUAGUACUAUAAGCUUGUGUUACAUGAGGAUCACCCAUGUCCUCAUAGGCUCGUCUUAU [Mat - Sensor v3 - Turn-off var 2 - D87] (puzzle: Sensor v3, turn-off variant 2)”, in that order: 0.646 µM, 0.0475 µM and 0.446 µM.
